Results: US20100221257A1 (AstraZeneca / MedImmune, published 2010)

T1: cynomolgus IL-1R1, endogenous on CYNOM-K1 cells (cynomolgus monkey, UniProt A0A7N9CMI5 18-569)
T1 sequence: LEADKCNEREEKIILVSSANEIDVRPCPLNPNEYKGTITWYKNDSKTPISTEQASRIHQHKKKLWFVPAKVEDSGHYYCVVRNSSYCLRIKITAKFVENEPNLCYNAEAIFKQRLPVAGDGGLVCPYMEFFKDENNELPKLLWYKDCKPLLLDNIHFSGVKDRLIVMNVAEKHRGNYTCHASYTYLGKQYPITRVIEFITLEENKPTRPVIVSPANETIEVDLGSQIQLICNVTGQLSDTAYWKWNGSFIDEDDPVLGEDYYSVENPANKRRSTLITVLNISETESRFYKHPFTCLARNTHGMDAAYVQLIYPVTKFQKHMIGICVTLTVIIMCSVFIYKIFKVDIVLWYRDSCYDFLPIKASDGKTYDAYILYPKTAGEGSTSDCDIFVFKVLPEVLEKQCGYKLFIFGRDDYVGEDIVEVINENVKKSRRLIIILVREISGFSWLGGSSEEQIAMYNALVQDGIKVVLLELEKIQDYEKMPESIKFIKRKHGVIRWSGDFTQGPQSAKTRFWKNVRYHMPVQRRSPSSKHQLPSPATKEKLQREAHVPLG

T2: human recombinant IL1sRII (human, UniProt P27930 14-343)
T2 construct: also called Human IL1sRII
T2 sequence (looked up): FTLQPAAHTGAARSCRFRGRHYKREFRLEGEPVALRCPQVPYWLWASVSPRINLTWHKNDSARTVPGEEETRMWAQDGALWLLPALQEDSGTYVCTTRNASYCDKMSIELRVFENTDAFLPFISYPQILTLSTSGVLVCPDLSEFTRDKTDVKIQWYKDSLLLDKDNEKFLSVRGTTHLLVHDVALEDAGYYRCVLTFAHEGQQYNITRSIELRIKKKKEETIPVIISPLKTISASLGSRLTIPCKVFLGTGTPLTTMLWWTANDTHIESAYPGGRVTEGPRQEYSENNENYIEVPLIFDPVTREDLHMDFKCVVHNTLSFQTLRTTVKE

T3: human recombinant IL-1R6/IL1 R rp2/Fc (human, UniProt Q9HB29 20-335, limits assumed)
T3 construct: Bought; also called Human IL1R6Fc; not shown: Fc of the bought fusion protein, not described
T3 sequence (looked up): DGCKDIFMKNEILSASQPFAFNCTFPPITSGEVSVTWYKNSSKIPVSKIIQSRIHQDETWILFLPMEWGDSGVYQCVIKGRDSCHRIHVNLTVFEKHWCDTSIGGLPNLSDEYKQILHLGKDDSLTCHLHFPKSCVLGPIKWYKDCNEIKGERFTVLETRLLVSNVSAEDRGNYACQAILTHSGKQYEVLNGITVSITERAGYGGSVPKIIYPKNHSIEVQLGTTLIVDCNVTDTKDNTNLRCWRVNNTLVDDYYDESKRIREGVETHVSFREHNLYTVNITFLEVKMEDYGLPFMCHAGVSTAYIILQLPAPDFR

T4: human recombinant IL18R alpha/IL-1 R5/Fc (human, UniProt Q13478 19-329, limits assumed)
T4 construct: Bought; also called IL18R alpha Fc; not shown: Fc of the bought fusion protein, not described
T4 sequence (looked up): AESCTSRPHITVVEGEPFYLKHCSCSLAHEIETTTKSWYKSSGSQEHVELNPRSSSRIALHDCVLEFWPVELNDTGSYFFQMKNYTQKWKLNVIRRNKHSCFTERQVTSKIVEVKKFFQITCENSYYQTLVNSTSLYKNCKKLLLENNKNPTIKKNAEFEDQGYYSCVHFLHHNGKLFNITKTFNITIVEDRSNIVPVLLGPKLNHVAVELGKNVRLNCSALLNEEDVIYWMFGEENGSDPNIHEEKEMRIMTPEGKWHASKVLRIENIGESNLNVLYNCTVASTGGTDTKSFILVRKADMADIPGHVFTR

T5: recombinant human IL-1 R4 (ST2)/Fc (human, UniProt Q01638-2 19-328, limits assumed)
T5 construct: Bought; not shown: Fc of the bought fusion protein, not described
T5 sequence (looked up): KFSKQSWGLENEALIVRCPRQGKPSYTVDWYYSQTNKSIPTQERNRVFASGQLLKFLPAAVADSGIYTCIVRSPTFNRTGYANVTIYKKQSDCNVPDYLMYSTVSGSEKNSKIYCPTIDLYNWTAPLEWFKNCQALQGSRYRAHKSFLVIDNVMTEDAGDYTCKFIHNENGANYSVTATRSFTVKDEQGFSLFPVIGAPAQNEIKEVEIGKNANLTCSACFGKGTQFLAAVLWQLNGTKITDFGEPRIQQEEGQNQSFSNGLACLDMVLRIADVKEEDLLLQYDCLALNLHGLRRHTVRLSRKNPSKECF


What was measured:
[1] = biological target: T1, cynomolgus IL-1R1, endogenous on …; test: cell-based or functional assay
[2] = biological target: T2, human recombinant IL1sRII; test: DELFIA epitope competition; no inhibition of biotinylated huIL-1RFc binding to the adsorbed IgG
Experimental: (§1) Titrations of non biotinylated purified human recombinant IL1sRII (R&D Systems), human recombinant IL-1R6/IL1 R rpt/Fc (R&D Systems), human recombinant IL18R alpha/IL-1 R5/Fc (R&D systems) and recombinant human IL-1 R4 (ST2)/Fc (R&D systems) were tested in each assay to establish the potency for each structurally related family member, as measured by IC₅₀ values in the assay.
(§2) Purified IgG were adsorbed onto 96-well Maxisorp microtitre plates (Nunc) in PBS at a concentration which gave a significant signal when biotinylated human HIS IL1RFc was added at approximately its estimated KD for that particular IgG. Excess IgG was washed away with PBS-Tween (0.1% v/v) and the wells were blocked with non-fat dried milk in PBS (3% w/v) for 1 h. […] Non-biotinylated human HIS IL1RFc was included as a positive control. 25 μl of this dilution series was added to the blocked IgG assay plate.
(§3) 25 μl of 1.4 nM biotinylated human HIS IL1RFc was added to the assay plate. The plate was then sealed and incubated at room temperature for 2 h. Unbound antigen was removed by washing with PBS-Tween (0.1% v/v), while the remaining biotinylated human IL1RFc was detected by streptavidin-Europium3+ conjugate (DELFIA® detection, PerkinElmer). Time-resolved fluorescence was measured at 620 nm on an EnVision plate reader (PerkinElmer). Fluorescence data was plotted as europium counts. IC₅₀ values were determined using GraphPad Prism software by curve fitting using a four-parameter logistic equation (Equation 3).

[3] = biological target: T3, human recombinant IL-1R6/IL1 R rp2/Fc; test: as above
Experimental: as §1, §2, §3

[4] = biological target: T4, human recombinant IL18R alpha/IL-1 R5/Fc; test: as above
Experimental: as §1, §2, §3

[5] = biological target: T5, recombinant human IL-1 R4 (ST2)/Fc; test: as above
Experimental: as §1, §2, §3

IC50, inhibition of IL-1β induced IL-8 release from CYNOM-K1 cells, experiment 1 [1] [nM] | IC50, inhibition of IL-1β induced IL-8 release from CYNOM-K1 cells, experiment 2 [1] [nM] | binding result [2] | binding result [3] | binding result [4] | binding result [5] | Binder
0.8 | 0.6 | no binding | no binding | no binding | no binding | Antibody 6GL IgG2 (antibody, V domains shown, Germlined IgG2, lambda light chain; also called Antibody 6 IgG2; 28PL GL) VH: not shown VL: QSVLTQPPSVSGAPGQRVTISCTGSSSNIGAGYDVHWYQQLPGTAPKLLIYGDTHRPSGVPDRFSGSKSGTSASLAITGLQAEDEADYYCQSYDTVRLHHVFGGGTKLTVL
4.2 | 2.5 | no binding | no binding | no binding | no binding | Antibody 8GL IgG2 (antibody, V domains shown, Germlined IgG2, lambda light chain) VH: not shown VL: QSVLTQPPSVSGAPGQRVTISCTGSSSNIGAGYDVHWYQQLPGTAPKLLIYGDTHRPSGVPDRFSGSKSGTSASLAITGLQAEDEADYYCQSYDTHLVAHVFGGGTKLTVL
0.9 | 0.7 | no binding | no binding | no binding | no binding | Antibody 10GL IgG2 (antibody, V domains shown, Germlined IgG2, lambda light chain) VH: not shown VL: QSVLTQPPSVSGAPGQRVTISCTGSSSNIGAGYDVHWYQQLPGTAPKLLIYGDTHRPSGVPDRFSGSKSGTSASLAITGLQAEDEADYYCQSYDTRADDAHFGGGTKLTVL
